Source: patent US20230265151A1, “GIP/GLP1 CO-AGONIST COMPOUNDS” (priority 2020, published 2023)
Substitutions are numbered along the chain they refer to.

T1: human glucose-dependent insulinotropic polypeptide (GIP) receptor (human, UniProt P48546 22-466)
T1 sequence (looked up): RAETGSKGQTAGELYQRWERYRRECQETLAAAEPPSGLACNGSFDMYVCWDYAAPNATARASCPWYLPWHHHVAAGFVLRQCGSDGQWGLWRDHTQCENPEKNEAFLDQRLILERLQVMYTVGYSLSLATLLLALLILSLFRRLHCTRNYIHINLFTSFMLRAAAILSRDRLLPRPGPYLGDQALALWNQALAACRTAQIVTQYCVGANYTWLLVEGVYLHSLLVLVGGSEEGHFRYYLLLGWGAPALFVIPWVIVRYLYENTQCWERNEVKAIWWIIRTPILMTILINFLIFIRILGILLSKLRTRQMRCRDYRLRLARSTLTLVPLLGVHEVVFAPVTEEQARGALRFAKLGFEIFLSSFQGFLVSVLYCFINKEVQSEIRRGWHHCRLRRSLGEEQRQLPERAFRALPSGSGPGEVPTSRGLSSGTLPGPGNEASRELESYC

T2: human GIP receptor (human) (UniProt P48546)
T2 sequence (looked up): T1 sequence (looked up)

T3: human GIP receptor (human, UniProt P48546 22-466)
T3 sequence (looked up): T1 sequence (looked up)

T4: human GIP receptor (human, UniProt P48546 22-466)
T4 sequence (looked up): T1 sequence (looked up)

B1: Example 203 (peptide)
peptide: YXEGTXTSDXSIXLDXIAQXEFIKXLIKGGPSSGAPPPS
modifications: Aib2, αMeF(2F)6, 4Pal10, αMeL13, Orn16, Aib20, K24(Z), αMeY25, K28(Z), C-terminal NH2; Z = AEEA2-(γ-Glu)-(4-(4-tert-butylphenyl)butanoyl)
B2: Example 200 (peptide)
peptide: YXEGTXTSDYXIXLDXKAQXEFIXXLIEGGKSSGAPPPS
modifications: Aib2, αMeF(2F)6, Dap11, αMeL13, Orn16, K17(Z), Aib20, D-Glu24, αMeY25, K31(Z), C-terminal NH2; Z = AEEA2-(γ-Glu)-CO-(CH2)12-CO2H
B3: Example 202 (peptide)
peptide: B2 peptide with Y10X
modifications: Aib2, αMeF(2F)6, 4Pal10, Tle11, αMeL13, Orn16, K17(Z), Aib20, D-Glu24, αMeY25, K31(Z), C-terminal NH2; Z = AEEA2-(γ-Glu)-CO-(CH2)12-CO2H
B4: Example 489 (peptide)
peptide: YXEGTXTSDXXIXLDXQAQXKFIXXLIEGGPSSGAPPPSK
modifications: Y-Aib-EGT-αMeF(2F)-TSD-4Pal-Aib-I-αMeL-LD-Orn-QAQ-Aib-K((2-[2-(2-Amino-ethoxy)-ethoxy]-acetyl)2-(γ-Glu)-CO-(CH2)12-CO2H)FI-(D-Glu)-αMeY-LIEGGPSSGAPPPSK((2-[2-(2-Amino-ethoxy)-ethoxy]-acetyl)2-(γ-Glu)-CO-(CH2)12-CO2H)-NH2
B5: Y-Aib-EGT-αMeF(2F)-TSD-4Pal-SI-αMeL-LD-Orn-IAQ-Aib-EFIK((2-[2-(2-Amino-ethoxy)-ethoxy]-acetyl)2-(γ-Glu)-CO-(CH2)12-CO2H)-αMeY-LIK((2-[2-(2-Amino-ethoxy)-ethoxy] … (peptide)
peptide: B1 peptide
modifications: Aib2, αMeF(2F)6, 4Pal10, αMeL13, Orn16, Aib20, αMeY25; acylated K24, K28 (groups as in name); C-terminal amide
B6: Y-Aib-EGT-αMeF(2F)-TSD-4Pal-SI-αMeL-LD-Orn-IAQ-Aib-EFIK((2-[2-(2-Amino-ethoxy)-ethoxy]-acetyl)2-(γ-Glu)-(4-(4-tert-butylphenyl)butanoyl))-αMeY-LIK((2-[2-(2-Amin … (peptide)
peptide: B1 peptide
modifications: Aib2, αMeF(2F)6, 4Pal10, αMeL13, Orn16, Aib20, αMeY25; acylated K24, K28 (groups as in name); C-terminal amide
B7: Y-Aib-EGT-αMeF(2F)-TSD-4Pal-SI-αMeL-LD-Orn-IAQ-Aib-EFIK((2-[2-(2-Amino-ethoxy)-ethoxy]-acetyl)2-CO-(CH2)12-CO2H)-αMeY-LIK((2-[2-(2-Amino-ethoxy)-ethoxy]-acetyl) … (peptide)
peptide: B1 peptide
modifications: Aib2, αMeF(2F)6, 4Pal10, αMeL13, Orn16, Aib20, αMeY25; acylated K24, K28 (groups as in name); C-terminal amide
B8: Y-Aib-EGT-αMeF(2F)-TSD-1Nal-SI-αMeL-LD-Orn-K((2-[2-(2-Amino-ethoxy)-ethoxy]-acetyl)2-(γ-Glu)-CO-(CH2)12-CO2H)AQ-Aib-EFI-(D-Glu)-αMeY-LIEGGK((2-[2-(2-Amino-ethox … (peptide)
peptide: B2 peptide with Y10X, X11S
modifications: Aib2, αMeF(2F)6, 1Nal10, αMeL13, Orn16, Aib20, D-Glu24, αMeY25; acylated K17, K31 (groups as in name); C-terminal amide
B9: Y-Aib-EGT-αMeF(2F)-TSD-4Pal-SI-αMeL-LD-Orn-IAQ-Aib-K((2-[2-(2-Amino-ethoxy)-ethoxy]-acetyl)2-(γ-Glu)-CO-(CH2)12-CO2H)FI-(D-Glu)-αMeY-LIEGGK((2-[2-(2-Amino-ethox … (peptide)
peptide: B1 peptide with E21K, K24X, K28E, P31K
modifications: Aib2, αMeF(2F)6, 4Pal10, αMeL13, Orn16, Aib20, D-Glu24, αMeY25; acylated K21, K31 (groups as in name); C-terminal amide
B10: Y-Aib-EGT-αMeF-TSD-4Pal-SI-αMeL-LD-Orn-K((2-[2-(2-Amino-ethoxy)-ethoxy]-acetyl)2-(γ-Glu)-CO-(CH2)10-CH3)AQ-Aib-E-αMeF-I-(D-Glu)-αMeY-LIEGGK((2-[2-(2-Amino-ethox … (peptide)
peptide: B2 peptide with Y10X, X11S, F22X
modifications: Aib2, αMeF6, 4Pal10, αMeL13, Orn16, Aib20, αMeF22, D-Glu24, αMeY25; acylated K17, K31 (groups as in name); C-terminal amide
B11: Y-Aib-EGT-αMeF(2F)-TSD-4Pal-SI-αMeL-LD-Orn-IAQ-Aib-EFIK((εK)-(γ-Glu)-CO-(CH2)12-CO2H)-αMeY-LIEGGK((εK)-(γ-Glu)-CO-(CH2)12-CO2H)SSGAPPPS-NH2 (peptide)
peptide: B1 peptide with K28E, P31K
modifications: Aib2, αMeF(2F)6, 4Pal10, αMeL13, Orn16, Aib20, αMeY25; acylated K24, K31 (groups as in name); C-terminal amide
B12: Y-Aib-EGT-αMeF(2F)-TSD-4Pal-SI-αMeL-LD-Orn-IAQ-Aib-EFIK((εK)-(εK)-(γ-Glu)-CO-(CH2)12-CO2H)-αMeY-LIEGGK((εK)-(εK)-(γ-Glu)-CO-(CH2)12-CO2H)SSGAPPPS-NH2 (peptide)
peptide: B1 peptide with K28E, P31K
modifications: Aib2, αMeF(2F)6, 4Pal10, αMeL13, Orn16, Aib20, αMeY25; acylated K24, K31 (groups as in name); C-terminal amide
B13: Y-Aib-EGT-αMeF(2F)-TSD-4Pal-SI-αMeL-LD-Orn-IAQ-Aib-EFIK((2-[2-(2-Amino-ethoxy)-ethoxy]-acetyl)2-CO-(CH2)12-CO2H)-αMeY-LIEGGK((2-[2-(2-Amino-ethoxy)-ethoxy]-acet … (peptide)
peptide: B1 peptide with K28E, P31K
modifications: Aib2, αMeF(2F)6, 4Pal10, αMeL13, Orn16, Aib20, αMeY25; acylated K24, K31 (groups as in name); C-terminal amide
B14: Y-Aib-EGT-αMeF(2F)-TSD-4Pal-SI-αMeL-LD-Orn-IAQ-Aib-EFI-(D-Glu)-αMeY-LIK((2-[2-(2-Amino-ethoxy)-ethoxy]-acetyl)2-(γ-Glu)-CO-(CH2)12-CO2H)GGK((2-[2-(2-Amino-ethox … (peptide)
peptide: B1 peptide with K24X, P31K
modifications: Aib2, αMeF(2F)6, 4Pal10, αMeL13, Orn16, Aib20, D-Glu24, αMeY25; acylated K28, K31 (groups as in name); C-terminal amide
B15: Y-Aib-EGT-αMeF(2F)-TSD-4Pal-SI-αMeL-LD-Orn-IAQ-Aib-EFIK((2-[2-(2-Amino-ethoxy)-ethoxy]-acetyl)2-(γ-Glu)-CO-(CH2)12-CO2H)-αMeY-LIEGGK((2-[2-(2-Amino-ethoxy)-etho … (peptide)
peptide: B1 peptide with K28E, P31K
modifications: Aib2, αMeF(2F)6, 4Pal10, αMeL13, Orn16, Aib20, αMeY25; acylated K24, K31 (groups as in name); C-terminal amide
B16: Y-Aib-EGT-αMeF(2F)-TSD-4Pal-SI-αMeL-LD-Orn-IAQ-Aib-K((2-[2-(2-Amino-ethoxy)-ethoxy]-acetyl)2-CO-(CH2)12-CO2H)FI-(D-Glu)-αMeY-LIEGGK((2-[2-(2-Amino-ethoxy)-ethox … (peptide)
peptide: B1 peptide with E21K, K24X, K28E, P31K
modifications: Aib2, αMeF(2F)6, 4Pal10, αMeL13, Orn16, Aib20, D-Glu24, αMeY25; acylated K21, K31 (groups as in name); C-terminal amide
B17: Y-Aib-EGT-αMeF-TSD-4Pal-SI-αMeL-LD-Orn-K((2-[2-(2-Amino-ethoxy)-ethoxy]-acetyl)2-(γ-Glu)-CO-(CH2)12-CO2H)AQ-Aib-E-αMeF-I-(D-Glu)-αMeY-LIEGGK((2-[2-(2-Amino-etho … (peptide)
peptide: B2 peptide with Y10X, X11S, F22X
modifications: Aib2, αMeF6, 4Pal10, αMeL13, Orn16, Aib20, αMeF22, D-Glu24, αMeY25; acylated K17, K31 (groups as in name); C-terminal amide
B18: Y-Aib-EGT-αMeF(2F)-TSD-4Pal-SI-αMeL-LD-Orn-IAQ-Aib-EFI-(D-Glu)-αMeY-LIK((2-[2-(2-Amino-ethoxy)-ethoxy]-acetyl)2-(γ-Glu)-CO-(CH2)14-CH3)GGK((2-[2-(2-Amino-ethoxy … (peptide)
peptide: B1 peptide with K24X, P31K
modifications: Aib2, αMeF(2F)6, 4Pal10, αMeL13, Orn16, Aib20, D-Glu24, αMeY25; acylated K28, K31 (groups as in name); C-terminal amide

The binders below were run against human glucagon-like peptide-1 (GLP-1) receptor (human, UniProt P43220 24-463) (assay: cell-based or functional assay).

| Binder | cAMP EC50 [nM] | cAMP Emax [%] |
| --- | --- | --- |
| B1 | 0.535 |  |
| B2 | 0.834 | 93.7 |
| B3 | 0.944 | 92.2 |

The binders below were run against T1, human glucose-dependent insulinotropic … (assay: cell-based or functional assay).

| Binder | cAMP EC50 [nM] | cAMP Emax [%] |
| --- | --- | --- |
| B1 | 0.0721 |  |
| B2 | 0.0503 | 96.3 |
| B3 | 0.057 | 86 |

The binders below were run against human glucagon receptor (human, UniProt P47871 26-477) (assay: cell-based or functional assay).

| Binder | cAMP EC50 [µM] |
| --- | --- |
| B1 | > 9.95 |
| B2 | > 9.95 |
| B3 | > 9.95 |

Each binder was assayed against T2, human GIP receptor (human) (assay: cell-based or functional assay).

| Binder | cAMP EC50 [nM] | cAMP Emax [%] |
| --- | --- | --- |
| B4 | 0.0131 | 103 |

Each binder was assayed against human glucagon receptor (human) (UniProt P47871) (assay: cell-based or functional assay).

| Binder | cAMP EC50 [µM] |
| --- | --- |
| B4 | > 10.1 |

These binders were tested against hGLP-1R (Homo sapiens, UniProt P43220) (assay: cell-based or functional assay).

| Binder | cAMP EC50 [nM] | cAMP Emax [%] |
| --- | --- | --- |
| B4 | 0.257 | 112 |

Each binder was assayed against T3, human GIP receptor (assay: cell-based or functional assay).

| Binder | cAMP EC50 (1.0% HSA) [nM] | cAMP Emax (1.0% HSA) [%] |
| --- | --- | --- |
| B4 | 0.578 | 79.4 |

What follows are binders tested against T4, human GIP receptor (assay: cell-based or functional assay).

| Binder | cAMP EC50 (1.0% HSA) [nM] |
| --- | --- |
| B5 | 1.73 |
| B6 | 0.682 |
| B7 | 0.832 |
| B8 | 6.75 |
| B9 | 2.19 |
| B10 | 1.24 |
| B11 | 2.06 |
| B12 | 1.06 |
| B13 | 1.47 |
| B14 | 1.66 |
| B15 | 3.07 |
| B16 | 0.771 |
| B17 | 0.777 |
| B18 | 1.2 |

Target: human glucagon receptor (human, UniProt P47871 26-477)
Assay: cell-based or functional assay
Remark: another data set of the same source
Target sequence in this assay (P47871 26-477): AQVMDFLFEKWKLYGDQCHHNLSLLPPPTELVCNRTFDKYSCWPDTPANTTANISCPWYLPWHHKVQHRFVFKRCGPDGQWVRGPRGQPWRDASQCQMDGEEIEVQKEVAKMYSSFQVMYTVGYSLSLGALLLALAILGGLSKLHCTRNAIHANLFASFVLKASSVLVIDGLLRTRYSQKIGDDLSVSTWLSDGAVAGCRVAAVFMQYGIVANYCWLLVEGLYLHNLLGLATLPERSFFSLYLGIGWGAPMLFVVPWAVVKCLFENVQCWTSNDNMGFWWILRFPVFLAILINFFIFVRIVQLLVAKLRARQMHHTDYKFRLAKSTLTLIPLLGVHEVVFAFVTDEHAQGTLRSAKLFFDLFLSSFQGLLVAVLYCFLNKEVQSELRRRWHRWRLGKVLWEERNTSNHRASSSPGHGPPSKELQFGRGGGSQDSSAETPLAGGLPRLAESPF

| Binder | cAMP EC50 (1.0% HSA) [µM] |
| --- | --- |
| B4 | > 9.95 |

These binders were tested against human GLP-1 receptor (human, UniProt P43220 24-463) (assay: cell-based or functional assay).

| Binder | cAMP EC50 (1.0% HSA) [nM] | cAMP Emax (1.0% HSA) [%] |
| --- | --- | --- |
| B4 | 13.5 | 98.7 |

Target: human glucagon receptor (human, UniProt P47871 26-477)
Assay: cell-based or functional assay
Remark: another data set of the same source

| Binder | cAMP EC50 (1.0% HSA) [µM] |
| --- | --- |
| B5 | > 9.95 |
| B6 | > 9.95 |
| B7 | > 9.95 |
| B8 | > 9.95 |
| B9 | > 9.95 |
| B10 | > 9.95 |
| B11 | > 9.95 |
| B12 | > 9.95 |
| B13 | > 9.95 |
| B14 | > 9.95 |
| B15 | > 9.95 |
| B16 | > 9.95 |
| B17 | > 9.95 |
| B18 | > 9.95 |
